Source: patent US20210054027

Sequence of MMP-9 (recombinant human catalytic domain) (chain, as listed by the source): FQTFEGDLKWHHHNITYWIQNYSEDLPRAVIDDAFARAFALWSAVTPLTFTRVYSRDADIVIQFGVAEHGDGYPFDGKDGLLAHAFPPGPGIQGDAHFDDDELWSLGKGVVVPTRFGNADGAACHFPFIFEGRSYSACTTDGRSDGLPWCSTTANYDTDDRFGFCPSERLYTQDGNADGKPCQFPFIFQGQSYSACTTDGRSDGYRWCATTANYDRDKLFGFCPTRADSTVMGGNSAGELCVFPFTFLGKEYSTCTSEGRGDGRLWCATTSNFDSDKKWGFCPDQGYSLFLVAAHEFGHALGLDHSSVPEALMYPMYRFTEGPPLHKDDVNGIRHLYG
Sequence of Rho-KFDFCyclic (chain, as listed by the source): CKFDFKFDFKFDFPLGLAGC
Sequence of Rho-KLDLCyclic (chain, as listed by the source): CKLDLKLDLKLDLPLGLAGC

Substance | enzymatic cleavage of progelator (LCMS, 5 hr) (KFDFCyclic) | enzymatic cleavage of progelator (data not shown) (KLDLCyclic) | enzymatic cleavage of progelator (visible aggregation, TEM fibers) (Rho-KFDFCyclic) | enzymatic cleavage of progelator (visible aggregation, TEM fibers) (Rho-KLDLCyclic) | enzymatic cleavage of progelator (TEM fibers, CD) (Rho-KFDFCyclic) | enzymatic cleavage of progelator (TEM fibers, CD) (Rho-KLDLCyclic)
MMP-9 (recombinant human catalytic domain) | KFDFCyclic and KLDLCyclic (data not shown) were treated with MI-associated enzymes, MMP-9 and elastase to confirm enzyme responsiveness | KFDFCyclic and KLDLCyclic (data not shown) were treated with MI-associated enzymes, MMP-9 and elastase to confirm enzyme responsiveness | Enzymatic cleavage by active MMP-9 and elastase (FIGS. 20a-20d) induced visible aggregation in the reaction vial and entangled fibrous meshes by TEM, whereas denatured enzymes elicited no response | Enzymatic cleavage by active MMP-9 and elastase (FIGS. 20a-20d) induced visible aggregation in the reaction vial and entangled fibrous meshes by TEM, whereas denatured enzymes elicited no response |  | 
Thermolysin |  |  |  |  | Despite the promiscuous activity of thermolysin, incubation with Rho-KLDLCyclic and Rho-KFDFCyclic induced fiber formation by TEM | Despite the promiscuous activity of thermolysin, incubation with Rho-KLDLCyclic and Rho-KFDFCyclic induced fiber formation by TEM
